Reference: paper PMC3158823

Biological target: Neu/V664E TM domain peptide (rat)
Assay: SDS-PAGE mobility

stoichiometry N: 2
Substance: Neu/V664E TM domain peptide
